Consider one molecule from publication PMC7293033 (2020).

The target of the test is His-FGF2, LMW FGF2 (residues 135-288, C211S/C229S) (human, UniProt P09038 135-288, C211S | C229S). The experiment in a line: SPR.
His-FGF2, LMW FGF2 (residues 135-288, C211S/C229S), sequence (P09038 135-288 C211S/C229S): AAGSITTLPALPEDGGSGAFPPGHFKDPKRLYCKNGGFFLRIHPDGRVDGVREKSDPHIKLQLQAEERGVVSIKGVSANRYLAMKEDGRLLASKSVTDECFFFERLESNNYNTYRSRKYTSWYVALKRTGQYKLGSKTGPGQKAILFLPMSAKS

B1: His-API5 (apoptosis inhibitor 5, residues 1-504, isoform 2), wild type (natural protein)
chain: MPTVEELYRNYGILADATEQVGQHKDAYQVILDGVKGGTKEKRLAAQFIPKFFKHFPELADSAINAQLDLCEDEDVSIRRQAIKELPQFATGENLPRVADILTQLLQTDDSAEFNLVNNALLSIFKMDAKGTLGGLFSQILQGEDIVRERAIKFLSTKLKTLPDEVLTKEVEELILTESKKVLEDVTGEEFVLFMKILSGLKSLQTVSGRQQLVELVAEQADLEQTFNPSDPDCVDRLLQCTRQAVPLFSKNVHSTRFVTYFCEQVLPNLGTLTTPVEGLDIQLEVLKLLAEMSSFCGDMEKLETNLRKLFDKLLEYMPLPPEEAENGENAGNEEPKLQFSYVECLLYSFHQLGRKLPDFLTAKLNAEKLKDFKIRLQYFARGLQVYIRQLRLALQGKTGEALKTEENKIKVVALKITNNINVLIKDLFHIPPSYKSTVTLSWKPVQKVEIGQKRASEDTTSGSPPKKSSAGPKRDARQIYNPPSGKYSSNLGNFNYERSLQGK
In the case of B1, the dissociation rate constant (koff) worked out at 0.00474 s⁻¹.
